Several values for one entry are separate records, joined by “and”; a condition that tells them apart may be missing. Identical values can stand only once.
B1: 65D3 chimeric Fab, NNK library L3 mutant S to A (VL S25A) (Fab, V domains shown)
VH: QSLEESGGRLVTPGGSLTLTCTVSGFSLSTHDISWVRQAPGKGLEWIGVIARRGSTYYASWAKGRFTISKTSTTVDLKITSPTIEDTATYFCAREEFDFWGQGTLVTVSS
VL: AVLTQTASPVSAAVGGTVTISCQSAQSVYNNKELSWFQQKPGQPPKLLISYASTLASGVPSRFKGSGSGTQFTLTISDLECDDAATYYCLGGYASTIDMWAFGGGTEVVVK
B2: 65D3 chimeric Fab, NNK library L5 mutant S to F (VL S27F) (Fab, V domains shown)
VH: QSLEESGGRLVTPGGSLTLTCTVSGFSLSTHDISWVRQAPGKGLEWIGVIARRGSTYYASWAKGRFTISKTSTTVDLKITSPTIEDTATYFCAREEFDFWGQGTLVTVSS
VL: AVLTQTASPVSAAVGGTVTISCQSSQFVYNNKELSWFQQKPGQPPKLLISYASTLASGVPSRFKGSGSGTQFTLTISDLECDDAATYYCLGGYASTIDMWAFGGGTEVVVK
B3: 65D3 chimeric Fab, NNK library L5 mutant S to V (VL S27V) (Fab, V domains shown)
VH: QSLEESGGRLVTPGGSLTLTCTVSGFSLSTHDISWVRQAPGKGLEWIGVIARRGSTYYASWAKGRFTISKTSTTVDLKITSPTIEDTATYFCAREEFDFWGQGTLVTVSS
VL: AVLTQTASPVSAAVGGTVTISCQSSQVVYNNKELSWFQQKPGQPPKLLISYASTLASGVPSRFKGSGSGTQFTLTISDLECDDAATYYCLGGYASTIDMWAFGGGTEVVVK
B4: 65D3 chimeric Fab, NNK library L8 mutant N to K (VL N30K) (Fab, V domains shown)
VH: QSLEESGGRLVTPGGSLTLTCTVSGFSLSTHDISWVRQAPGKGLEWIGVIARRGSTYYASWAKGRFTISKTSTTVDLKITSPTIEDTATYFCAREEFDFWGQGTLVTVSS
VL: AVLTQTASPVSAAVGGTVTISCQSSQSVYKNKELSWFQQKPGQPPKLLISYASTLASGVPSRFKGSGSGTQFTLTISDLECDDAATYYCLGGYASTIDMWAFGGGTEVVVK
B5: 65D3 chimeric Fab, NNK library L3 mutant S to H (VL S25H) (Fab, V domains shown)
VH: QSLEESGGRLVTPGGSLTLTCTVSGFSLSTHDISWVRQAPGKGLEWIGVIARRGSTYYASWAKGRFTISKTSTTVDLKITSPTIEDTATYFCAREEFDFWGQGTLVTVSS
VL: AVLTQTASPVSAAVGGTVTISCQSHQSVYNNKELSWFQQKPGQPPKLLISYASTLASGVPSRFKGSGSGTQFTLTISDLECDDAATYYCLGGYASTIDMWAFGGGTEVVVK
B6: 65D3 chimeric Fab, NNK library L5 mutant S to M (VL S27M) (Fab, V domains shown)
VH: QSLEESGGRLVTPGGSLTLTCTVSGFSLSTHDISWVRQAPGKGLEWIGVIARRGSTYYASWAKGRFTISKTSTTVDLKITSPTIEDTATYFCAREEFDFWGQGTLVTVSS
VL: AVLTQTASPVSAAVGGTVTISCQSSQMVYNNKELSWFQQKPGQPPKLLISYASTLASGVPSRFKGSGSGTQFTLTISDLECDDAATYYCLGGYASTIDMWAFGGGTEVVVK
B7: 65D3 chimeric Fab, NNK library L18 mutant L to S (VL L55S) (Fab, V domains shown)
VH: QSLEESGGRLVTPGGSLTLTCTVSGFSLSTHDISWVRQAPGKGLEWIGVIARRGSTYYASWAKGRFTISKTSTTVDLKITSPTIEDTATYFCAREEFDFWGQGTLVTVSS
VL: AVLTQTASPVSAAVGGTVTISCQSSQSVYNNKELSWFQQKPGQPPKLLISYASTSASGVPSRFKGSGSGTQFTLTISDLECDDAATYYCLGGYASTIDMWAFGGGTEVVVK
B8: 65D3 chimeric Fab, NNK library L3 mutant S to L (VL S25L) (Fab, V domains shown)
VH: QSLEESGGRLVTPGGSLTLTCTVSGFSLSTHDISWVRQAPGKGLEWIGVIARRGSTYYASWAKGRFTISKTSTTVDLKITSPTIEDTATYFCAREEFDFWGQGTLVTVSS
VL: AVLTQTASPVSAAVGGTVTISCQSLQSVYNNKELSWFQQKPGQPPKLLISYASTLASGVPSRFKGSGSGTQFTLTISDLECDDAATYYCLGGYASTIDMWAFGGGTEVVVK
B9: 65D3 chimeric Fab, NNK library L8 mutant N to H (VL N30H) (Fab, V domains shown)
VH: QSLEESGGRLVTPGGSLTLTCTVSGFSLSTHDISWVRQAPGKGLEWIGVIARRGSTYYASWAKGRFTISKTSTTVDLKITSPTIEDTATYFCAREEFDFWGQGTLVTVSS
VL: AVLTQTASPVSAAVGGTVTISCQSSQSVYHNKELSWFQQKPGQPPKLLISYASTLASGVPSRFKGSGSGTQFTLTISDLECDDAATYYCLGGYASTIDMWAFGGGTEVVVK
B10: 65D3 chimeric Fab, NNK library L3 mutant S to R (VL S25R) (Fab, V domains shown)
VH: QSLEESGGRLVTPGGSLTLTCTVSGFSLSTHDISWVRQAPGKGLEWIGVIARRGSTYYASWAKGRFTISKTSTTVDLKITSPTIEDTATYFCAREEFDFWGQGTLVTVSS
VL: AVLTQTASPVSAAVGGTVTISCQSRQSVYNNKELSWFQQKPGQPPKLLISYASTLASGVPSRFKGSGSGTQFTLTISDLECDDAATYYCLGGYASTIDMWAFGGGTEVVVK
B11: 65D3 chimeric Fab, NNK library L5 mutant S to K (VL S27K) (Fab, V domains shown)
VH: QSLEESGGRLVTPGGSLTLTCTVSGFSLSTHDISWVRQAPGKGLEWIGVIARRGSTYYASWAKGRFTISKTSTTVDLKITSPTIEDTATYFCAREEFDFWGQGTLVTVSS
VL: AVLTQTASPVSAAVGGTVTISCQSSQKVYNNKELSWFQQKPGQPPKLLISYASTLASGVPSRFKGSGSGTQFTLTISDLECDDAATYYCLGGYASTIDMWAFGGGTEVVVK
B12: 65D3 chimeric Fab, NNK library L3 mutant S to T (VL S25T) (Fab, V domains shown)
VH: QSLEESGGRLVTPGGSLTLTCTVSGFSLSTHDISWVRQAPGKGLEWIGVIARRGSTYYASWAKGRFTISKTSTTVDLKITSPTIEDTATYFCAREEFDFWGQGTLVTVSS
VL: AVLTQTASPVSAAVGGTVTISCQSTQSVYNNKELSWFQQKPGQPPKLLISYASTLASGVPSRFKGSGSGTQFTLTISDLECDDAATYYCLGGYASTIDMWAFGGGTEVVVK
B13: 65D3 chimeric Fab, NNK library H26 mutant G to K (H-G64K) (Fab, V domains shown)
VH: QSLEESGGRLVTPGGSLTLTCTVSGFSLSTHDISWVRQAPGKGLEWIGVIARRGSTYYASWAKKRFTISKTSTTVDLKITSPTIEDTATYFCAREEFDFWGQGTLVTVSS
VL: AVLTQTASPVSAAVGGTVTISCQSSQSVYNNKELSWFQQKPGQPPKLLISYASTLASGVPSRFKGSGSGTQFTLTISDLECDDAATYYCLGGYASTIDMWAFGGGTEVVVK
B14: 65D3 chimeric Fab, NNK library L8 mutant N to R (VL N30R) (Fab, V domains shown)
VH: QSLEESGGRLVTPGGSLTLTCTVSGFSLSTHDISWVRQAPGKGLEWIGVIARRGSTYYASWAKGRFTISKTSTTVDLKITSPTIEDTATYFCAREEFDFWGQGTLVTVSS
VL: AVLTQTASPVSAAVGGTVTISCQSSQSVYRNKELSWFQQKPGQPPKLLISYASTLASGVPSRFKGSGSGTQFTLTISDLECDDAATYYCLGGYASTIDMWAFGGGTEVVVK
B15: 65D3 chimeric Fab, NNK library L5 mutant S to T (VL S27T) (Fab, V domains shown)
VH: QSLEESGGRLVTPGGSLTLTCTVSGFSLSTHDISWVRQAPGKGLEWIGVIARRGSTYYASWAKGRFTISKTSTTVDLKITSPTIEDTATYFCAREEFDFWGQGTLVTVSS
VL: AVLTQTASPVSAAVGGTVTISCQSSQTVYNNKELSWFQQKPGQPPKLLISYASTLASGVPSRFKGSGSGTQFTLTISDLECDDAATYYCLGGYASTIDMWAFGGGTEVVVK
B16: 65D3 chimeric Fab, NNK library L20 mutant S to T (L-S57T) (Fab, V domains shown)
VH: QSLEESGGRLVTPGGSLTLTCTVSGFSLSTHDISWVRQAPGKGLEWIGVIARRGSTYYASWAKGRFTISKTSTTVDLKITSPTIEDTATYFCAREEFDFWGQGTLVTVSS
VL: AVLTQTASPVSAAVGGTVTISCQSSQSVYNNKELSWFQQKPGQPPKLLISYASTLATGVPSRFKGSGSGTQFTLTISDLECDDAATYYCLGGYASTIDMWAFGGGTEVVVK
B17: 65D3 chimeric Fab, NNK library L3 mutant S to K (VL S25K) (Fab, V domains shown)
VH: QSLEESGGRLVTPGGSLTLTCTVSGFSLSTHDISWVRQAPGKGLEWIGVIARRGSTYYASWAKGRFTISKTSTTVDLKITSPTIEDTATYFCAREEFDFWGQGTLVTVSS
VL: AVLTQTASPVSAAVGGTVTISCQSKQSVYNNKELSWFQQKPGQPPKLLISYASTLASGVPSRFKGSGSGTQFTLTISDLECDDAATYYCLGGYASTIDMWAFGGGTEVVVK
B18: 65D3 chimeric Fab, NNK library L5 mutant S to Y (VL S27Y) (Fab, V domains shown)
VH: QSLEESGGRLVTPGGSLTLTCTVSGFSLSTHDISWVRQAPGKGLEWIGVIARRGSTYYASWAKGRFTISKTSTTVDLKITSPTIEDTATYFCAREEFDFWGQGTLVTVSS
VL: AVLTQTASPVSAAVGGTVTISCQSSQYVYNNKELSWFQQKPGQPPKLLISYASTLASGVPSRFKGSGSGTQFTLTISDLECDDAATYYCLGGYASTIDMWAFGGGTEVVVK
B19: 65D3 chimeric Fab, NNK library H17 mutant S to W (H-S55W) (Fab, V domains shown)
VH: QSLEESGGRLVTPGGSLTLTCTVSGFSLSTHDISWVRQAPGKGLEWIGVIARRGWTYYASWAKGRFTISKTSTTVDLKITSPTIEDTATYFCAREEFDFWGQGTLVTVSS
VL: AVLTQTASPVSAAVGGTVTISCQSSQSVYNNKELSWFQQKPGQPPKLLISYASTLASGVPSRFKGSGSGTQFTLTISDLECDDAATYYCLGGYASTIDMWAFGGGTEVVVK

Tests used:
[1] = molecular target: Peptide 1593 (…) (Mycobacterium tuberculosis); experiment: ELISA, NNK clone supernatant on coated peptide (22 hits)
[2] = molecular target: Peptide 1593 (…) (Mycobacterium tuberculosis); experiment: ELISA, NNK clone supernatant on coated peptide

Binder | OD450 nm [1] [OD450] | ratio (OD450 to WT OD450) [1] | OD450 nm [2] | ratio (OD450 to WT OD450) [2]
B1 | 0.972 | 1.21 fold of WT | 0.972 OD450 | 1.21 fold of WT
B2 | 1.11 | 1.43 fold of WT | 1.11 OD450 | 1.43 fold of WT
B3 | 1.09 | 1.41 fold of WT | 1.09 OD450 | 1.41 fold of WT
B4 | 1.04 | 1.37 fold of WT | 1.04 OD450 and 1.03 OD450 | 1.37 fold of WT and 1.35 fold of WT
B5 | 0.95 | 1.18 fold of WT | 0.95 OD450 and 0.97 OD450 | 1.18 fold of WT and 1.2 fold of WT
B6 | 1.14 | 1.47 fold of WT | 1.16 OD450 and 1.14 OD450 | 1.49 fold of WT and 1.47 fold of WT
B7 | 0.968 | 1.3 fold of WT | 0.968 OD450 | 1.3 fold of WT
B8 | 0.954 | 1.18 fold of WT | 0.954 OD450 | 1.18 fold of WT
B9 | 0.957 | 1.26 fold of WT | 1.02 OD450 and 0.957 OD450 | 1.34 fold of WT and 1.25 fold of WT
B10 | 0.963 | 1.19 fold of WT | 0.963 OD450 and 0.995 OD450 and 1.04 OD450 | 1.19 fold of WT and 1.23 fold of WT and 1.29 fold of WT
B11 | 1.16 | 1.49 fold of WT | 1.16 OD450 | 1.49 fold of WT
B12 | 0.956 | 1.19 fold of WT | 0.956 OD450 | 1.19 fold of WT
B13 | – | – | 1.09 OD450 | 1.3 fold of WT
B14 | 0.958 | 1.26 fold of WT | – | –
B15 | 1.11 | 1.43 fold of WT | 1.11 OD450 | 1.43 fold of WT
B16 | – | – | 0.977 OD450 | 2.05 fold of WT
B17 | 0.982 | 1.22 fold of WT | 0.982 OD450 | 1.22 fold of WT
B18 | 1.12 | 1.44 fold of WT | 1.1 OD450 and 1.12 OD450 | 1.41 fold of WT and 1.44 fold of WT
B19 | – | – | 1.28 OD450 | 2.06 fold of WT

Source: patent publication US12649778
